{"source": "patent US20020082273A1", "about": "“Agents for use in the treatment of alzheimer's disease” (priority 1998, published 2002)", "assay": "Aβ aggregation assay (soluble peptide after centrifugation)", "type": "physicochemical, human", "method": "Aβ stock was diluted to 2.5 μM in 150 mM NaCl and 20 mM glycine (pH 3-4.5), MES (pH 5-6.2) or HEPES (pH 6.4-8.8), with or without metal ions, incubated (30 min., 37° C.), centrifuged (20 min., 10000 g). The amount of protein in the supernatant was determined by the Micro BCA protein assay as described above.\nThe resultant aggregated particles were sedimented by centrifugation to permit determination of soluble Aβ1-40 in the supernatant. To determine the centrifugation time required to completely sediment the aggregated particles generated under these conditions, Aβ1-40 was incubated for 30 min at 37° C. with no metal, Zn^2+ (100 μM), Cu^2+ (100 μM) and pH (5.5). Reaction mixtures were centrifuged at 10000 g for different times, or ultracentrifuged at 100000 g for 1 h. (FIG. 1). […] Aβ1-40 was incubated (30 min., 37° C.) with no metal, under acidic conditions (pH 5.5), Zn^2+ (100 μM) or Cu^2+ (100 μM), and centrifuged at 10000 g for different time intervals, or at 100,000 g (ultracentrifuged) for 1 h for comparison. All data points are means ±SD, n=3.\nSince the conformational state and solubility of Aβ is altered at different pH (Soto, C., et al., J. Neurochem. 63:1191-1198 (1994)), the effects of [H^+] on Zn^2+- and […] Aβ1-40 aggregation were studied. […] All data points are means ±SD, n=3. [H^+] alone precipitates Aβ1-40 (2.5 μM) as the solution is lowered below pH 7.4, and dramatically once the pH falls below 6.3 (FIG. 4A). At pH 5.0, 80% of the peptide is precipitated, but the peptide is not aggregated by acidic environments below pH 5, confirming and extending earlier reports on the effect of pH on Aβ solubility (Burdick, D., J. Biol. Chem. 267:546-554 (1992)). Zn^2+ (30 μM) induced a constant level (˜50%) of aggregation between pH 6.2-8.5, while below pH 6.0, aggregation could be explained solely by the effect of [H^+].", "note": "Where “and” joins values, the source holds several entries; their conditions need not be identical. Equal entries are not always repeated.", "data": [{"substance": "Aβ1-40: synthetic human Aβ peptide, residues 1-40", "values": [{"measurement": "available peptide aggregated by Cu^2+", "setting": "Cu^2+ (30 μM), pH 6.8", "result": "> 85% and 85%"}, {"measurement": "level of aggregation induced by Zn^2+", "setting": "Zn^2+ 30 μM, pH 6.2-8.5", "result": "~50", "unit": "%"}, {"measurement": "aggregation in the presence of Cu", "setting": "pH 7.1", "result": "approx. 30%"}]}]}
